# Article PMC7602980
# How the values were obtained:
# [1] = molecular target: Cx43CT_(236-382) (rat) (UniProt P08050)
# [2] = molecular target: Cx43CT CT (Rattus norvegicus) (UniProt P08050); conditions: cited from earlier work
# Chain of Drebrin (Q16643 2-649): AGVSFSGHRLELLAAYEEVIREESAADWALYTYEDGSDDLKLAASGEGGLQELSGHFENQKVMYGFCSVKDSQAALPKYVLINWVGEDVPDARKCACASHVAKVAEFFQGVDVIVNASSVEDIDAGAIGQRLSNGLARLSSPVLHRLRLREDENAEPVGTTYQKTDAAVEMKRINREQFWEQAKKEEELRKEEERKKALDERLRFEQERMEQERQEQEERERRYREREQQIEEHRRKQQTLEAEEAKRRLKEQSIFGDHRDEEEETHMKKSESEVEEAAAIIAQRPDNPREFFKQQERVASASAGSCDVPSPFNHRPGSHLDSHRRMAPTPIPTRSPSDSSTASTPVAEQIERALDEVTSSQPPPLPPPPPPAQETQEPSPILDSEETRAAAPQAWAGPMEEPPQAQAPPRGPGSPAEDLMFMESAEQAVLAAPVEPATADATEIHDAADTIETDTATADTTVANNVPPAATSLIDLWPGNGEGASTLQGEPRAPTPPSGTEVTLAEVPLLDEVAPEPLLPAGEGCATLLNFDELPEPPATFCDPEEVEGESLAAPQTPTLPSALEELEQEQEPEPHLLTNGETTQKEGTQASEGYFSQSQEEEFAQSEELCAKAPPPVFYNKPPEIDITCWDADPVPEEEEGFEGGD
"inhibition of ERK2 phosphorylation of GST-Cx43CT (236-382) (in vitro kinase assay, Western blot with Cx43 pS279/S282 antibodies) in presence of CaM (~90% saturation) [1] [%]","inhibition of Src phosphorylation of GST-Cx43CT (236-382) (in vitro kinase assay, Western blot with Cx43 pY265 antibody) in presence of CaM (~90% saturation) [1] [%]",Substance,Kd [2] [µM]
30,90,calmodulin (from UniProt P0DP23 1-149) (natural protein),–
–,–,Drebrin (from UniProt Q16643),300
